In the supplement of paper PMC9233669:
Variants at the floor of the assay were thinned out.

Key:
biotinyl-Leu-oxazolone = assay: self-aminoacylation, catalytic enhancement (BLO) (fold over background); higher = more active; k-Seq, kA / k0A0; sequences stand for … in GGGAAUGGAUCCACAUCUACGAAUUC…UUCACUGCAGACUUGACGAAGCUG
How it was run: (§1)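 Each biotinyl-aminoacyl-oxazolone, at 2–1250 μM, was incubated with mutagenized RNA pools (0.43 μM) carrying a 21-nt variable region. The 50 μL reactions contained HEPES/NaCl/KCl/MgCl2/CaCl2 buffer with 5% acetonitrile at pH 6.9–7.0 and ran for 90 minutes at room temperature. After streptavidin capture, RNA was measured by qPCR in triplicate and by Illumina sequencing, and catalytic enhancement was calculated as median kA over the uncatalyzed rate from a pseudo-first-order fit of per-sequence fraction reacted.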

biotinyl-Trp-oxazolone = assay: self-aminoacylation, catalytic enhancement (BWO) (fold over background); higher = more active; k-Seq, kA / k0A0; sequences stand for … in GGGAAUGGAUCCACAUCUACGAAUUC…UUCACUGCAGACUUGACGAAGCUG
How it was run: as §1

biotinyl-Phe-oxazolone = assay: self-aminoacylation, catalytic enhancement (BFO) (fold over background); higher = more active; k-Seq, kA / k0A0; sequences stand for … in GGGAAUGGAUCCACAUCUACGAAUUC…UUCACUGCAGACUUGACGAAGCUG
How it was run: as §1

biotinyl-Ile-oxazolone = assay: self-aminoacylation, catalytic enhancement (BIO) (fold over background); higher = more active; k-Seq, kA / k0A0; sequences stand for … in GGGAAUGGAUCCACAUCUACGAAUUC…UUCACUGCAGACUUGACGAAGCUG
How it was run: as §1

biotinyl-Met-oxazolone = assay: self-aminoacylation, catalytic enhancement (BMO) (fold over background); higher = more active; k-Seq, kA / k0A0; sequences stand for … in GGGAAUGGAUCCACAUCUACGAAUUC…UUCACUGCAGACUUGACGAAGCUG
How it was run: as §1

biotinyl-Val-oxazolone = assay: self-aminoacylation, catalytic enhancement (BVO) (fold over background); higher = more active; k-Seq, kA / k0A0; sequences stand for … in GGGAAUGGAUCCACAUCUACGAAUUC…UUCACUGCAGACUUGACGAAGCUG
How it was run: as §1

Row | Sequence | self-aminoacylation (biotinyl-Leu-oxazolone) | self-aminoacylation (biotinyl-Trp-oxazolone) | self-aminoacylation (biotinyl-Phe-oxazolone) | self-aminoacylation (biotinyl-Ile-oxazolone) | self-aminoacylation (biotinyl-Met-oxazolone) | self-aminoacylation (biotinyl-Val-oxazolone)
1 | CUAUUUCAAGCAAUCGGUCUG [Fam1A.1 aminoacylation ribozyme variant] | 0.996 | 0.883 | 1.61 | 0.881 | 0.741 | 0.795
2 | CUAUUUCACACAAUCGGUCUG [Fam1A.1 aminoacylation ribozyme variant] | 0.766 | 0.617 | 0.675 | 0.88 | 0.848 | 0.774
3 | CUAUUUCUAACAAUCGGUCUG [Fam1A.1 aminoacylation ribozyme variant] | 0.824 | 0.668 | 0.973 | 0.913 | 0.818 | 0.787
4 | CUCCUUCAAAAAAUCGGUCUG [Fam1A.1 aminoacylation ribozyme variant] | 1.3 | 9.62 | 11.8 | 1.16 | 1.09 | 1.01
5 | CUCCUUCAAACAAUCGAUCUG [Fam1A.1 aminoacylation ribozyme variant] | 0.589 | 1.2 | 2.82 | 0.586 | 0.571 | 0.705
6 | CUCCUUCAAACAAUCGGUAUG [Fam1A.1 aminoacylation ribozyme variant] | 1.24 | 11.2 | 13.8 | 0.742 | 1.07 | 0.866
7 | CUCCUUCAAACAAUCGGUCUC [Fam1A.1 aminoacylation ribozyme variant] | 1.75 | 26.2 | 40.8 | 1.11 | 1.19 | 0.933
8 | CUCCUUCAAACAAUCGGUUUG [Fam1A.1 aminoacylation ribozyme variant] | 1.89 | 30.6 | 43.9 | 1.17 | 1.3 | 1.4
9 | CUCCUUCAAACAAUCGUUCUG [Fam1A.1 aminoacylation ribozyme variant] | 0.472 | 0.785 | 1.68 | 0.51 | 0.501 | 0.631
10 | CUCCUUCAAACAAUCUGUCUG [Fam1A.1 aminoacylation ribozyme variant] | 0.554 | 1.23 | 2.63 | 0.655 | 0.516 | 0.61
11 | CUCCUUCACACAAUCGGUCUG [Fam1A.1 aminoacylation ribozyme variant] | 0.686 | 0.895 | 1.55 | 0.907 | 0.799 | 0.985
12 | CUCCUUGAAACAAUCGGUCUG [Fam1A.1 aminoacylation ribozyme variant] | 1.18 | 1.73 | 1.25 | 1.1 | 1.31 | 1.19
13 | CUCCUUUAAACAAUCGGUCUG [Fam1A.1 aminoacylation ribozyme variant] | 0.712 | 1.36 | 1.73 | 0.972 | 1.12 | 0.974
14 | CUGCUUCAAACAACCGGUCUG [Fam1A.1 aminoacylation ribozyme variant] | 0.793 | 0.921 | 0.915 | 0.683 | 0.664 | 0.932
15 | CUGCUUCAAACAAUCGGACUG [Fam1A.1 aminoacylation ribozyme variant] | 1.79 | 28.3 | 49.5 | 1.13 | 1.26 | 1.21
16 | CUGCUUCAAACAAUCGGUCGG [Fam1A.1 aminoacylation ribozyme variant] | 3.72 | 59.6 | 183 | 1.48 | 2.05 | 1.71
17 | CUGCUUCAAACAAUCGGUCUA [Fam1A.1 aminoacylation ribozyme variant] | 2.18 | 38.8 | 80.1 | 1.3 | 1.33 | 1.34
18 | CUGCUUCAAACUAUCGGUCUG [Fam1A.1 aminoacylation ribozyme variant] | 0.976 | 0.937 | 1.35 | 0.856 | 0.752 | 1.07
19 | CUGCUUCAAAGAAUCGGUCUG [Fam1A.1 aminoacylation ribozyme variant] | 1.39 | 11.7 | 14.5 | 1.04 | 1.19 | 0.891
20 | CUGCUUCACACAAUCGGUCUG [Fam1A.1 aminoacylation ribozyme variant] | 0.836 | 0.824 | 0.641 | 0.733 | 0.911 | 0.757
21 | CUUACCAUGGUCAUCGAGUGA [Fam2.1 aminoacylation ribozyme variant] | 5.9 | 7.03 | 14.4 | 3.16 | 5.89 | 3
22 | CUUACCCAGGUCAUCGAGUGA [Fam2.1 aminoacylation ribozyme variant] | 4.56 | 5.54 | 4.25 | 3.04 | 4.94 | 3.6
23 | CUUACCCUGGCCAUCGAGUGA [Fam2.1 aminoacylation ribozyme variant] | 4.34 | 3.51 | 9.12 | 2.78 | 2.99 | 2.65
24 | CUUACCCUGGGCAUCGAGUGA [Fam2.1 aminoacylation ribozyme variant] | 7.09 | 6.01 | 20.7 | 2.57 | 5.55 | 3.33
25 | CUUACCCUGGUAAUCGAGUGA [Fam2.1 aminoacylation ribozyme variant] | 7.47 | 8.08 | 24.3 | 3.22 | 6.18 | 3.18
26 | CUUACCCUGGUCAGCGAGUGA [Fam2.1 aminoacylation ribozyme variant] | 6.11 | 7.19 | 29.2 | 3.42 | 4.38 | 3.69

Row | Sequence | self-aminoacylation (biotinyl-Leu-oxazolone) | self-aminoacylation (biotinyl-Trp-oxazolone) | self-aminoacylation (biotinyl-Phe-oxazolone) | self-aminoacylation (biotinyl-Ile-oxazolone) | self-aminoacylation (biotinyl-Met-oxazolone) | self-aminoacylation (biotinyl-Val-oxazolone)
27 | CUUACCCUGGUCAUCGAGCGA [Fam2.1 aminoacylation ribozyme variant] | 1.96 | 2.72 | 1.09 | 1.36 | 2.13 | 1.35
28 | CUUACCCUGGUCAUCGGGUGA [Fam2.1 aminoacylation ribozyme variant] | 17.1 | 13.9 | 93.6 | 5.25 | 16 | 7.68
29 | CUUACCCUGGUUAUCGAGUGA [Fam2.1 aminoacylation ribozyme variant] | 7.11 | 8.54 | 23.2 | 3.35 | 6.78 | 3.58
30 | CUUAUCCUGGUCAUCGAGUGA [Fam2.1 aminoacylation ribozyme variant] | 6.22 | 6.96 | 7.87 | 3.22 | 6.26 | 3.42
31 | CUUCACAUAGGUCAUCGGGUG [Fam2.2 aminoacylation ribozyme variant] | 6.86 | 5.58 | 33 | 3.77 | 5.24 | 3.98
32 | CUUCACCUAGGGCAUCGGGUG [Fam2.2 aminoacylation ribozyme variant] | 3.99 | 4.25 | 17.5 | 2.75 | 2.91 | 3.04
33 | CUUCACCUAGGUCAUCGAGUG [Fam2.2 aminoacylation ribozyme variant] | 7.37 | 4.55 | 9.18 | 4.29 | 5.78 | 4.22
34 | CUUCACCUAGGUCAUCGGGGG [Fam2.2 aminoacylation ribozyme variant] | 1.86 | 3.57 | 3.92 | 2.31 | 2.35 | 2.37
35 | CUUCACCUAGGUCAUCUGGUG [Fam2.2 aminoacylation ribozyme variant] | 2.25 | 2.15 | 4.76 | 1.58 | 1.79 | 1.74
36 | CUUCACCUAGGUCGUCGGGUG [Fam2.2 aminoacylation ribozyme variant] | 2.43 | 2.19 | 9.55 | 2.2 | 2.39 | 2.54
37 | CUUCACCUAGGUGAUCGGGUG [Fam2.2 aminoacylation ribozyme variant] | 4.03 | 4.93 | 20.6 | 3.56 | 3.91 | 3.9
38 | CUUCACCUAGGUUAUCGGGUG [Fam2.2 aminoacylation ribozyme variant] | 4.8 | 3.63 | 12.2 | 3.13 | 5.11 | 3.51
39 | CUUCACCUCGGUCAUCGGGUG [Fam2.2 aminoacylation ribozyme variant] | 5.57 | 5.07 | 44.6 | 3.54 | 5.17 | 4.37
40 | CUUCACCUUGGUCAUCGGGUG [Fam2.2 aminoacylation ribozyme variant] | 5.93 | 5.5 | 45.5 | 3.13 | 5.39 | 4.27
41 | CUUCUCCAAACAAUCGGUCUG [Fam1A.1 aminoacylation ribozyme variant] | 0.723 | 0.962 | 1.26 | 0.67 | 0.772 | 0.831
42 | CUUCUUCAAACAAUCGAUCUG [Fam1A.1 aminoacylation ribozyme variant] | 0.597 | 0.841 | 1.98 | 0.624 | 0.672 | 0.647
43 | CUUCUUCAAACAAUCGGACUG [Fam1A.1 aminoacylation ribozyme variant] | 0.698 | 3.43 | 7.56 | 0.822 | 0.652 | 0.677
44 | CUUCUUCAAACAAUCGGGCUG [Fam1A.1 aminoacylation ribozyme variant] | 1.43 | 4.55 | 5.81 | 1.29 | 1.25 | 1.06
45 | CUUCUUCAAACAUUCGGUCUG [Fam1A.1 aminoacylation ribozyme variant] | 1.26 | 1.39 | 1.05 | 1.03 | 1.15 | 1.23
46 | CUUCUUCAAAGAAUCGGUCUG [Fam1A.1 aminoacylation ribozyme variant] | 1.07 | 2.95 | 3.04 | 0.956 | 1.05 | 0.889
47 | CUUCUUCGAACAAUCGGUCUG [Fam1A.1 aminoacylation ribozyme variant] | 0.706 | 0.443 | 0.708 | 0.627 | 0.768 | 0.743
48 | CUUCUUCUAACAAUCGGUCUG [Fam1A.1 aminoacylation ribozyme variant] | 0.571 | 0.581 | 0.727 | 0.732 | 0.623 | 0.729
49 | GAAUUUGCUAAUAGUCGCAAG [Fam3.1 aminoacylation ribozyme variant] | 1.38 | 1.79 | 2.52 | 1.81 | 1.51 | 1.53
50 | GAGUGUGCUAAUAGUCGCAAG [Fam3.1 aminoacylation ribozyme variant] | 1.36 | 3.11 | 9.21 | 1.77 | 1.51 | 1.57
51 | GAGUUUGCAAAUAGUCGCAAG [Fam3.1 aminoacylation ribozyme variant] | 1.02 | 0.87 | 1.83 | 1.22 | 0.838 | 0.746
